Results taken from publication PMC9352680, “A comprehensive thermodynamic model for RNA binding by the Saccharomyces cerevisiae Pumilio protein PUF4”.

T1: PUF4 RNA-binding domain (Saccharomyces cerevisiae, UniProt P25339 537-888)
T1 sequence: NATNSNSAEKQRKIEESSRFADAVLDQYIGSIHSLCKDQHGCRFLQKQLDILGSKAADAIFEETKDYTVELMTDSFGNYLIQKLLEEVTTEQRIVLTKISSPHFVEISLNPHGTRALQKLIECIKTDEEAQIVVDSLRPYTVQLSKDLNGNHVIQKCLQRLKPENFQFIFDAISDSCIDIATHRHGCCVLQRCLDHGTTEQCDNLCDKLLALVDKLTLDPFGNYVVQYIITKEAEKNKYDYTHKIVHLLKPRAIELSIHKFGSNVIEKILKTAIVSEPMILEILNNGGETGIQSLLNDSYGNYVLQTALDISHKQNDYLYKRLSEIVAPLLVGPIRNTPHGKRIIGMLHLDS


These binders were tested against T1, PUF4 RNA-binding domain (assay: Mg; RNA-MaP; 20 mM Na-HEPES pH 7.4, 30 mM KOAc, 0.75 mM MgCl2, 0.1% Tween-20, 5% glycerol, 0.1 mg/mL BSA, 2 mM DTT; 25 C; 0.0125-409.6 nM protein). Conditions: tags: N-His6-TEV cleaved; C-SNAP kept, Cy3B-labelled; label: tethered on chip by stalled RNA polymerase.
UCUCUUUAUGUAUAUACUUCUCUU (ssRNA) [Id_ii_S1_P3E.2_K3.1_C3.2_[C-2T]_[T-1A]_H3.1_A3.1_F3.1_T3.2_[T9C]_[A10T]] gave a Kd of 15.1 nM. For UCUCUUAUUGUAUAUAAAUCUCUU (ssRNA) [Id_ii_S1_P3E.2_K3.1_C3.2_[C-2A]_H3.1_A3.1_F3.1_T3.2_[T9A]], the Kd was 13.9 nM. In the case of UCUCUUACUGUAUAUACCUCUCUU (ssRNA) [Id_ii_S1_P3E.2_K3.1_C3.2_[C-2A]_[T-1C]_H3.1_A3.1_F3.1_T3.2_[T9C]_[A10C]], the Kd is reported as 11.9 nM. UCUCUUAGUGUAUAUAAAUCUCUU (ssRNA) [Id_ii_S1_P3E.2_K3.1_C3.2_[C-2A]_[T-1G]_H3.1_A3.1_F3.1_T3.2_[T9A]] gave a Kd of 14.1 nM. For UCUCUUUUUGUAUAUAAUUCUCUU (ssRNA) [Id_ii_S1_P3E.2_K3.1_C3.2_[C-2T]_H3.1_A3.1_F3.1_T3.2_[T9A]_[A10T]], the Kd was 8.27 nM. Work on UCUCUUUAUGUAUAUAGUUCUCUU (ssRNA) [Id_ii_S1_P3E.2_K3.1_C3.2_[C-2T]_[T-1A]_H3.1_A3.1_F3.1_T3.2_[T9G]_[A10T]] yielded a Kd of 6.42 nM. UCUCUUACUGUAUAUAACUCUCUU (ssRNA) [Id_ii_S1_P3E.2_K3.1_C3.2_[C-2A]_[T-1C]_H3.1_A3.1_F3.1_T3.2_[T9A]_[A10C]] gave a Kd of 26.7 nM. With UCUCUUUCUGUAUUAUCUCUU (ssRNA) [Ib_S1_P4E.1_K4.1_C4.1_H4.1_[G2C]_[A4G]_A4.1_F4.1_T4.1] the Kd was 25.1 nM. UCUCUUACUGUAUAUAAAUCUCUU (ssRNA) [Id_ii_S1_P3E.2_K3.1_C3.2_[C-2A]_[T-1C]_H3.1_A3.1_F3.1_T3.2_[T9A]] showed a Kd of 16.3 nM. With UCUCUUAGUGUAUAUAUGUCUCUU (ssRNA) [Id_ii_S1_P3E.2_K3.1_C3.2_[C-2A]_[T-1G]_H3.1_A3.1_F3.1_T3.2_[A10G]] the Kd was 11 nM. UCUCUUAUUGUAUAUAAUUCUCUU (ssRNA) [Id_ii_S1_P3E.2_K3.1_C3.2_[C-2A]_H3.1_A3.1_F3.1_T3.2_[T9A]_[A10T]] was tested, and the Kd was 12.2 nM. With UCUCUUAUUGUAUAUAACUCUCUU (ssRNA) [Id_ii_S1_P3E.2_K3.1_C3.2_[C-2A]_H3.1_A3.1_F3.1_T3.2_[T9A]_[A10C]] the Kd was 12.9 nM. Work on UCUCUUUAUGUAUAUAUUUCUCUU (ssRNA) [Id_ii_S1_P3E.2_K3.1_C3.2_[C-2T]_[T-1A]_H3.1_A3.1_F3.1_T3.2_[A10T]] yielded a Kd of 9.19 nM. Binder UCUCUUAUUGUAUAUAUGUCUCUU (ssRNA) [Id_ii_S1_P3E.2_K3.1_C3.2_[C-2A]_H3.1_A3.1_F3.1_T3.2_[A10G]] has a Kd of 12.3 nM. UCUCUUUUUGUAUAUACUUCUCUU (ssRNA) [Id_ii_S1_P3E.2_K3.1_C3.2_[C-2T]_H3.1_A3.1_F3.1_T3.2_[T9C]_[A10T]] showed a Kd of 10.2 nM. Binder UCUCUUAUUGUAUAUACCUCUCUU (ssRNA) [Id_ii_S1_P3E.2_K3.1_C3.2_[C-2A]_H3.1_A3.1_F3.1_T3.2_[T9C]_[A10C]] has a Kd of 17.6 nM. With UCUCUUAAUGUAUAUAAUUCUCUU (ssRNA) [Id_ii_S1_P3E.2_K3.1_C3.2_[C-2A]_[T-1A]_H3.1_A3.1_F3.1_T3.2_[T9A]_[A10T]] the Kd was 8.64 nM. Binder UCUCUUAAUGUAUAUACCUCUCUU (ssRNA) [Id_ii_S1_P3E.2_K3.1_C3.2_[C-2A]_[T-1A]_H3.1_A3.1_F3.1_T3.2_[T9C]_[A10C]] has a Kd of 16.5 nM. Work on UCUCUUUUUGUAUAUAGCUCUCUU (ssRNA) [Id_ii_S1_P3E.2_K3.1_C3.2_[C-2T]_H3.1_A3.1_F3.1_T3.2_[T9G]_[A10C]] yielded a Kd of 5.32 nM. In the case of UCUCUUUUUGUAUAUAGUUCUCUU (ssRNA) [Id_ii_S1_P3E.2_K3.1_C3.2_[C-2T]_H3.1_A3.1_F3.1_T3.2_[T9G]_[A10T]], the Kd is reported as 4.16 nM. In the case of UCUCUUAAUGUAUAUAUGUCUCUU (ssRNA) [Id_ii_S1_P3E.2_K3.1_C3.2_[C-2A]_[T-1A]_H3.1_A3.1_F3.1_T3.2_[A10G]], the Kd is reported as 12.7 nM. Work on UCUCUUAUUGUAUAUAUUUCUCUU (ssRNA) [Id_ii_S1_P3E.2_K3.1_C3.2_[C-2A]_H3.1_A3.1_F3.1_T3.2_[A10T]] yielded a Kd of 9.49 nM. For UCUCUUAAUGUAUAUAAAUCUCUU (ssRNA) [Id_ii_S1_P3E.2_K3.1_C3.2_[C-2A]_[T-1A]_H3.1_A3.1_F3.1_T3.2_[T9A]], the Kd was 20.8 nM. UCUCUUCGUGUAUAUAGGUCUCUU (ssRNA) [Id_ii_S1_P3E.2_K3.1_C3.2_[T-1G]_H3.1_A3.1_F3.1_T3.2_[T9G]_[A10G]] gave a Kd of 9.62 nM. UCUCUUAUUGUAUAUACGUCUCUU (ssRNA) [Id_ii_S1_P3E.2_K3.1_C3.2_[C-2A]_H3.1_A3.1_F3.1_T3.2_[T9C]_[A10G]] showed a Kd of 26.9 nM. Work on UCUCUUACUGUAUAUACUUCUCUU (ssRNA) [Id_ii_S1_P3E.2_K3.1_C3.2_[C-2A]_[T-1C]_H3.1_A3.1_F3.1_T3.2_[T9C]_[A10T]] yielded a Kd of 15 nM. UCUCUUUUUUUAUUAUCUCUU (ssRNA) [Ib_S1_P4E.1_K4.1_C4.1_H4.1_[G2T]_[A4T]_A4.1_F4.1_T4.1] gave a Kd greater than 2300 nM. UCUCUUUGUAUCUUAUCUCUU (ssRNA) [Ic_S1_P4E.1_K4.1_C4.1_H4.1_A4.1_[A6C]_F4.1_T4.1] showed a Kd of 4.1 nM. Binder UCUCUUAAUGUAUAUAUUUCUCUU (ssRNA) [Id_ii_S1_P3E.2_K3.1_C3.2_[C-2A]_[T-1A]_H3.1_A3.1_F3.1_T3.2_[A10T]] has a Kd of 13.4 nM. In the case of UCUCUUUUUGUAUAUAGGUCUCUU (ssRNA) [Id_ii_S1_P3E.2_K3.1_C3.2_[C-2T]_H3.1_A3.1_F3.1_T3.2_[T9G]_[A10G]], the Kd is reported as 10.7 nM. UCUCUUUAAAUAUUAUCUCUU (ssRNA) [Ib_S1_P4E.1_K4.1_C4.1_H4.1_[G2A]_[T3A]_A4.1_F4.1_T4.1] showed a Kd greater than 2300 nM. In the case of UCUCUUUUUGUAUAUACCUCUCUU (ssRNA) [Id_ii_S1_P3E.2_K3.1_C3.2_[C-2T]_H3.1_A3.1_F3.1_T3.2_[T9C]_[A10C]], the Kd is reported as 12.1 nM.
